Where “and” joins values, the source holds several entries; their conditions need not be identical. Equal values may be shown once.
Biological target: mouse Flower isoform 4 with C-terminal mTFP (mFwe4-mTFP) (mouse)
Assay: native gel or EMSA; native PAGE (4-16% Bis-Tris, G-250 additive) of lysates of transfected Fwe KO mouse CTLs (modified RIPA: 50 mM Tris pH 7.5, 50 mM NaCl, 1% Triton-X-100, 1 mM EDTA), western blot with anti-DsRed recognising mTFP; oligomeric state read from band size

Sequence of mouse Flower isoform 4 with C-terminal mTFP (mFwe4-mTFP) (natural protein) (Q8BG21 whole entry, canonical isoform): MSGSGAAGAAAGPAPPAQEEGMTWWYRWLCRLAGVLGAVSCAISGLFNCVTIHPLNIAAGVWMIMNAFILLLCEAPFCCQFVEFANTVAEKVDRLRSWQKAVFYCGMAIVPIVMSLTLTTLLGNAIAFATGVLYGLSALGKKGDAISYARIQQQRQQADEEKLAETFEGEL

“mouse Flower isoform 4 with C-terminal mTFP (mFwe4-mTFP) (natural protein)” was tested, and the stoichiometry N was 4 and 6.

Reference: paper PMC11655906
